Laboratory results taken from the supplement of paper PMC9112550, “Optimization of the antimicrobial peptide Bac7 by deep mutational scanning” (BMC Biology, 2022).

Test system: Escherichia coli TOP10
Assay: shrunken log2 fold change of peptide-encoding DNA abundance (4.5 h post-induction vs induction); higher = less antimicrobial activity (less host growth inhibition)
Details: time post-induction: 4.5 h; library: site-saturation at positions 5, 18, 19, 20
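Also: peptides expressed intracellularly from a pBAD plasmid library in pooled LB shake-flask culture, induced with 0.3% L-arabinose, DNA abundance read by NGS, three biological replicates, DESeq2 with apeglm shrinkage.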

Row | Sequence | shrunken log2 fold change
1 | RRIRHRPPRLPRPRPRPFWIPRP | -0.364
2 | RRIRCRPPRLPRPRPRPILQPRP | -0.0117
3 | RRIRQRPPRLPRPRPRPNAFPRP | 0.227
4 | RRIRPRPPRLPRPRPRPAFWPRP | 0.459
5 | RRIRGRPPRLPRPRPRPSDHPRP | 0.0544
6 | RRIRLRPPRLPRPRPRPHWPPRP | 0.00985
7 | RRIRERPPRLPRPRPRPYMIPRP | -0.259
8 | RRIRNRPPRLPRPRPRPQCLPRP | 0.197
9 | RRIRERPPRLPRPRPRPRKHPRP | 0.0582
10 | RRIRSRPPRLPRPRPRPVQQPRP | -0.00468
11 | RRIRFRPPRLPRPRPRPEFFPRP | -0.153
12 | RRIRQRPPRLPRPRPRPMPFPRP | -0.0697
13 | RRIRTRPPRLPRPRPRPHEWPRP | 0.00742
14 | RRIRSRPPRLPRPRPRPDAYPRP | 0.101
15 | RRIRWRPPRLPRPRPRPEFTPRP | 0.362
16 | RRIRVRPPRLPRPRPRPATSPRP | -0.0495
17 | RRIRYRPPRLPRPRPRPLTDPRP | -0.134
18 | RRIRARPPRLPRPRPRPFINPRP | -0.356
19 | RRIRKRPPRLPRPRPRPMIWPRP | -0.00177
20 | RRIRNRPPRLPRPRPRPYRWPRP | -0.147
21 | RRIRQRPPRLPRPRPRPITSPRP | -0.0775
22 | RRIRFRPPRLPRPRPRPCMMPRP | -0.0025
23 | RRIRKRPPRLPRPRPRPPQRPRP | 1.08
24 | RRIRHRPPRLPRPRPRPSLSPRP | -0.619
25 | RRIRIRPPRLPRPRPRPMLIPRP | -0.21

Row | Sequence | shrunken log2 fold change
26 | RRIRHRPPRLPRPRPRPAWIPRP | -0.0987
27 | RRIRIRPPRLPRPRPRPYRFPRP | -0.636
28 | RRIRWRPPRLPRPRPRPFWDPRP | 0.00494
29 | RRIRMRPPRLPRPRPRPHRYPRP | -0.144
30 | RRIRNRPPRLPRPRPRPLLEPRP | 0.0286
31 | RRIRSRPPRLPRPRPRPDKRPRP | -0.198
32 | RRIRRRPPRLPRPRPRPYFEPRP | -0.562
33 | RRIRYRPPRLPRPRPRPTWYPRP | -0.168
34 | RRIRWRPPRLPRPRPRPICSPRP | -0.199
35 | RRIRERPPRLPRPRPRPPNAPRP | 0.186
36 | RRIRVRPPRLPRPRPRPSGSPRP | -0.0176
37 | RRIRVRPPRLPRPRPRPLVRPRP | 0.0251
38 | RRIRNRPPRLPRPRPRPEEWPRP | 0.108
39 | RRIRKRPPRLPRPRPRPLMMPRP | 0.207
40 | RRIRARPPRLPRPRPRPEGAPRP | 1.37
41 | RRIRFRPPRLPRPRPRPNGVPRP | -0.0018
42 | RRIRIRPPRLPRPRPRPYEIPRP | -0.811
43 | RRIRDRPPRLPRPRPRPNYEPRP | -0.252
44 | RRIRYRPPRLPRPRPRPRETPRP | -0.0404
45 | RRIRCRPPRLPRPRPRPMSNPRP | -0.64
46 | RRIRKRPPRLPRPRPRPHWMPRP | 0.0937
47 | RRIRHRPPRLPRPRPRPTIKPRP | -0.304
48 | RRIRIRPPRLPRPRPRPFMGPRP | -0.438
49 | RRIRNRPPRLPRPRPRPNSWPRP | -0.3
50 | RRIRNRPPRLPRPRPRPIWYPRP | -0.0752

Row | Sequence | shrunken log2 fold change
51 | RRIRRRPPRLPRPRPRPDYLPRP | 0.152
52 | RRIRSRPPRLPRPRPRPNLYPRP | -0.167
53 | RRIRYRPPRLPRPRPRPERGPRP | -0.0437
54 | RRIRFRPPRLPRPRPRPVFHPRP | -0.598
55 | RRIRGRPPRLPRPRPRPYMWPRP | -0.361
56 | RRIRMRPPRLPRPRPRPDKFPRP | 0.194
57 | RRIRRRPPRLPRPRPRPSGRPRP | 0.0215
58 | RRIRTRPPRLPRPRPRPCQYPRP | -0.293
59 | RRIRQRPPRLPRPRPRPKKFPRP | -0.097
60 | RRIRERPPRLPRPRPRPYWYPRP | -1.83
61 | RRIRMRPPRLPRPRPRPVNVPRP | 0.0663
62 | RRIRDRPPRLPRPRPRPRHSPRP | -0.043
63 | RRIRYRPPRLPRPRPRPMTTPRP | -0.2
64 | RRIRHRPPRLPRPRPRPDLCPRP | 0.00487
65 | RRIRGRPPRLPRPRPRPTELPRP | 0.261
66 | RRIRDRPPRLPRPRPRPSRPPRP | 0.452
67 | RRIRQRPPRLPRPRPRPIYWPRP | 0.0909
68 | RRIRGRPPRLPRPRPRPDERPRP | 0.104
69 | RRIRCRPPRLPRPRPRPIENPRP | -0.209
70 | RRIRKRPPRLPRPRPRPEFCPRP | 0.771
71 | RRIRDRPPRLPRPRPRPFQMPRP | -0.57
72 | RRIRQRPPRLPRPRPRPATKPRP | 0.154
73 | RRIRIRPPRLPRPRPRPMLYPRP | -0.33
74 | RRIRVRPPRLPRPRPRPHQYPRP | -0.278
75 | RRIRRRPPRLPRPRPRPHTSPRP | -0.0729

Row | Sequence | shrunken log2 fold change
76 | RRIRLRPPRLPRPRPRPCMGPRP | -0.085
77 | RRIRYRPPRLPRPRPRPGGDPRP | 0.137
78 | RRIRWRPPRLPRPRPRPNTFPRP | 2.19
79 | RRIRLRPPRLPRPRPRPIERPRP | -0.155
80 | RRIRSRPPRLPRPRPRPNKGPRP | -0.413
81 | RRIRVRPPRLPRPRPRPTDGPRP | 0.0478
82 | RRIRERPPRLPRPRPRPHEMPRP | -0.039
83 | RRIRGRPPRLPRPRPRPIPEPRP | 0.462
84 | RRIRKRPPRLPRPRPRPGDQPRP | -0.00987
85 | RRIRARPPRLPRPRPRPSGCPRP | 0.0438
86 | RRIRWRPPRLPRPRPRPVPKPRP | 0.524
87 | RRIRFRPPRLPRPRPRPNMYPRP | -0.712
88 | RRIRARPPRLPRPRPRPKKKPRP | 0.119
89 | RRIRPRPPRLPRPRPRPGLAPRP | 0.841
90 | RRIRMRPPRLPRPRPRPNRKPRP | -0.0954
91 | RRIRFRPPRLPRPRPRPAYTPRP | -0.876
92 | RRIRIRPPRLPRPRPRPKTKPRP | -0.0929
93 | RRIRIRPPRLPRPRPRPHCGPRP | -0.0759
94 | RRIRNRPPRLPRPRPRPKVMPRP | -0.0516
95 | RRIRIRPPRLPRPRPRPACVPRP | 0.0215
96 | RRIRERPPRLPRPRPRPTVHPRP | -0.42
97 | RRIRQRPPRLPRPRPRPVCRPRP | 0.198
98 | RRIRGRPPRLPRPRPRPYVAPRP | 0.0436
99 | RRIRVRPPRLPRPRPRPNRTPRP | 0.0905
100 | RRIRFRPPRLPRPRPRPHVYPRP | -0.0438

Row | Sequence | shrunken log2 fold change
101 | RRIRPRPPRLPRPRPRPKCCPRP | 0.228
102 | RRIRARPPRLPRPRPRPIDMPRP | -0.0819
103 | RRIRPRPPRLPRPRPRPIWSPRP | 0.0653
104 | RRIRYRPPRLPRPRPRPHRWPRP | -0.0477
105 | RRIRIRPPRLPRPRPRPHWKPRP | -0.0691
106 | RRIRCRPPRLPRPRPRPPMAPRP | 0.263
107 | RRIRFRPPRLPRPRPRPIMCPRP | -0.273
108 | RRIRHRPPRLPRPRPRPSHLPRP | -0.0467
109 | RRIRRRPPRLPRPRPRPCKTPRP | -0.103
110 | RRIRHRPPRLPRPRPRPNHCPRP | -0.0509
111 | RRIRRRPPRLPRPRPRPEFSPRP | 0.0744
112 | RRIRKRPPRLPRPRPRPAEAPRP | 0.959
113 | RRIRHRPPRLPRPRPRPMYKPRP | -0.138
114 | RRIRTRPPRLPRPRPRPEGQPRP | 0.0344
115 | RRIRFRPPRLPRPRPRPTVKPRP | -0.163
116 | RRIRDRPPRLPRPRPRPQRTPRP | 0.0905
117 | RRIRVRPPRLPRPRPRPFYWPRP | -0.103
118 | RRIRRRPPRLPRPRPRPKYRPRP | -0.000605
119 | RRIRKRPPRLPRPRPRPAQSPRP | 0.0619
120 | RRIRHRPPRLPRPRPRPQIKPRP | -0.889
121 | RRIRERPPRLPRPRPRPVVFPRP | -0.0884
122 | RRIRYRPPRLPRPRPRPSVLPRP | -0.444
123 | RRIRTRPPRLPRPRPRPDVNPRP | 0.21
124 | RRIRVRPPRLPRPRPRPMGLPRP | -0.00681
125 | RRIRCRPPRLPRPRPRPMGRPRP | 0.162

Row | Sequence | shrunken log2 fold change
126 | RRIRARPPRLPRPRPRPQSFPRP | -0.121
127 | RRIRDRPPRLPRPRPRPMNIPRP | -0.0931
128 | RRIRKRPPRLPRPRPRPRRDPRP | 0.491
129 | RRIRFRPPRLPRPRPRPQLWPRP | 0.338
130 | RRIRGRPPRLPRPRPRPCWTPRP | 0.28
131 | RRIRGRPPRLPRPRPRPHIPPRP | -0.101
132 | RRIRARPPRLPRPRPRPIPCPRP | 0.0669
133 | RRIRKRPPRLPRPRPRPNVGPRP | -0.0151
134 | RRIRERPPRLPRPRPRPCSQPRP | -0.0493
135 | RRIRGRPPRLPRPRPRPSWVPRP | 0.0128
136 | RRIRDRPPRLPRPRPRPPDWPRP | 0.421
137 | RRIRPRPPRLPRPRPRPRLVPRP | 0.323
138 | RRIRPRPPRLPRPRPRPNDAPRP | -0.025
139 | RRIRCRPPRLPRPRPRPPVCPRP | 0.222
140 | RRIRQRPPRLPRPRPRPFCNPRP | 0.0828
141 | RRIRCRPPRLPRPRPRPRDCPRP | 0.313
142 | RRIRHRPPRLPRPRPRPSRQPRP | 0.212
143 | RRIRSRPPRLPRPRPRPSWHPRP | -0.206
144 | RRIRIRPPRLPRPRPRPKADPRP | 0.204
145 | RRIRARPPRLPRPRPRPYEMPRP | -0.0385
146 | RRIRSRPPRLPRPRPRPLFCPRP | -0.146
147 | RRIRQRPPRLPRPRPRPEYSPRP | -0.191
148 | RRIRWRPPRLPRPRPRPGCCPRP | 0.659
149 | RRIRTRPPRLPRPRPRPNPVPRP | -0.0168
150 | RRIRIRPPRLPRPRPRPVPHPRP | 0.0565
